Measurements: article PMC9352680, “A comprehensive thermodynamic model for RNA binding by the Saccharomyces cerevisiae Pumilio protein PUF4”
Positions count from the first letter of the chain named. In names and notes the source's numbering stands.

B1: Id_ii_S4_P3E.3_K3.2_C3.2_[T-1G]_H3.2_A3.1_F3.1_T3.2_[T9A] (ssRNA)
RNA: UUUGACAACUGAUCGUUCUUUCUCGUAUAUAUAAAUUCUUUCUCGAUCAGUUGUCUUU
B2: Id_ii_S4_P3E.3_K3.2_C3.2_[T-1C]_H3.2_A3.1_F3.1_T3.2_[T9G]_[A10T] (ssRNA)
RNA: B1 RNA with G25C, A34G, A35U
B3: Id_ii_S4_P3E.3_K3.2_C3.2_[T-1C]_H3.2_A3.1_F3.1_T3.2_[T9C]_[A10C] (ssRNA)
RNA: B1 RNA with G25C, A34C, A35C
B4: Id_ii_S4_P3E.3_K3.2_C3.2_[T-1C]_H3.2_A3.1_F3.1_T3.2_[T9C]_[A10T] (ssRNA)
RNA: B1 RNA with G25C, A34C, A35U
B5: Id_ii_S4_P3E.3_K3.2_C3.2_[T-1C]_H3.2_A3.1_F3.1_T3.2_[T9A]_[A10C] (ssRNA)
RNA: B1 RNA with G25C, A35C
B6: Id_ii_S4_P3E.3_K3.2_C3.2_[T-1C]_H3.2_A3.1_F3.1_T3.2_[A10G] (ssRNA)
RNA: B1 RNA with G25C, A34U, A35G
B7: Id_ii_S4_P3E.3_K3.2_C3.2_[T-1C]_H3.2_A3.1_F3.1_T3.2_[A10T] (ssRNA)
RNA: B1 RNA with G25C, A34U, A35U
B8: Ia_S1_P5E.1_K5.1_C5.1_H5.1_A5.1_[T6C]_F5.1_T5.1 (ssRNA)
RNA: UCUCUUUGUAUCAUUAUCUCUU
B9: Ib_S1_P5E.1_K5.1_C5.1_H5.1_[G2C]_A5.1_[T5C]_F5.1_T5.1 (ssRNA)
RNA: UCUCUUUCUACUAUUAUCUCUU
B10: Id_ii_S4_P3E.3_K3.2_C3.2_[T-1A]_H3.2_A3.1_F3.1_T3.2_[T9G]_[A10C] (ssRNA)
RNA: B1 RNA with G25A, A34G, A35C
B11: Id_ii_S4_P3E.3_K3.2_C3.2_[T-1A]_H3.2_A3.1_F3.1_T3.2_[T9A] (ssRNA)
RNA: B1 RNA with G25A
B12: Id_ii_S4_P3E.3_K3.2_C3.2_H3.2_A3.1_F3.1_T3.2_[T9G]_[A10C] (ssRNA)
RNA: B1 RNA with G25U, A34G, A35C
B13: Id_ii_S4_P3E.3_K3.2_C3.2_H3.2_A3.1_F3.1_T3.2_[T9C]_[A10C] (ssRNA)
RNA: B1 RNA with G25U, A34C, A35C
B14: Id_ii_S4_P3E.3_K3.2_C3.2_H3.2_A3.1_F3.1_T3.2_[T9A]_[A10C] (ssRNA)
RNA: B1 RNA with G25U, A35C
B15: Id_ii_S4_P3E.3_K3.2_C3.2_H3.2_A3.1_F3.1_T3.2_[A10G] (ssRNA)
RNA: B1 RNA with G25U, A34U, A35G
B16: Id_ii_S4_P3E.3_K3.2_C3.2_H3.2_A3.1_F3.1_T3.2_[A10C] (ssRNA)
RNA: B1 RNA with G25U, A34U, A35C
B17: Id_ii_S4_P3E.3_K3.2_C3.2_H3.2_A3.1_F3.1_T3.2_[A10T] (ssRNA)
RNA: B1 RNA with G25U, A34U, A35U
B18: Id_ii_S4_P3E.3_K3.2_C3.2_H3.2_A3.1_F3.1_T3.2 (ssRNA)
RNA: B1 RNA with G25U, A34U
B19: Id_ii_S4_P3E.4_K3.3_C3.2_[C-2G]_[T-1C]_H3.3_A3.1_F3.1_T3.2_[T9G]_[A10T] (ssRNA)
RNA: UUUGACAACUGAUCGUUCUUUCUGCACACUAUAGUUUCUUUCUCGAUCAGUUGUCUUU
B20: Ib_S1_P5E.1_K5.1_C5.1_H5.1_[G2C]_A5.1_[T5A]_F5.1_T5.1 (ssRNA)
RNA: UCUCUUUCUAAUAUUAUCUCUU
B21: Id_ii_S4_P3E.4_K3.3_C3.2_[C-2G]_[T-1C]_H3.3_A3.1_F3.1_T3.2_[T9C]_[A10C] (ssRNA)
RNA: B19 RNA with G34C, U35C
B22: Id_ii_S4_P3E.4_K3.3_C3.2_[C-2G]_[T-1C]_H3.3_A3.1_F3.1_T3.2_[T9C] (ssRNA)
RNA: B19 RNA with G34C, U35A
B23: Id_ii_S4_P3E.4_K3.3_C3.2_[C-2G]_[T-1C]_H3.3_A3.1_F3.1_T3.2_[T9A]_[A10T] (ssRNA)
RNA: B19 RNA with G34A
B24: Id_ii_S4_P3E.4_K3.3_C3.2_[C-2G]_H3.3_A3.1_F3.1_T3.2_[T9C]_[A10C] (ssRNA)
RNA: B19 RNA with C25U, G34C, U35C
B25: Id_ii_S4_P3E.4_K3.3_C3.2_[C-2G]_H3.3_A3.1_F3.1_T3.2_[T9A]_[A10T] (ssRNA)
RNA: B19 RNA with C25U, G34A
B26: Id_ii_S4_P3E.4_K3.3_C3.2_[C-2G]_H3.3_A3.1_F3.1_T3.2_[A10T] (ssRNA)
RNA: B19 RNA with C25U, G34U
B27: Id_ii_S4_P3E.4_K3.3_C3.2_[C-2T]_[T-1C]_H3.3_A3.1_F3.1_T3.2_[T9C]_[A10G] (ssRNA)
RNA: B19 RNA with G24U, G34C, U35G
B28: Id_ii_S4_P3E.4_K3.3_C3.2_[C-2T]_[T-1C]_H3.3_A3.1_F3.1_T3.2_[A10C] (ssRNA)
RNA: B19 RNA with G24U, G34U, U35C
B29: Id_ii_S4_P3E.4_K3.3_C3.2_[C-2T]_[T-1C]_H3.3_A3.1_F3.1_T3.2_[A10T] (ssRNA)
RNA: B19 RNA with G24U, G34U

Biological target: T1, PUF4 RNA-binding domain (Saccharomyces cerevisiae, UniProt P25339 537-888)
T1 sequence: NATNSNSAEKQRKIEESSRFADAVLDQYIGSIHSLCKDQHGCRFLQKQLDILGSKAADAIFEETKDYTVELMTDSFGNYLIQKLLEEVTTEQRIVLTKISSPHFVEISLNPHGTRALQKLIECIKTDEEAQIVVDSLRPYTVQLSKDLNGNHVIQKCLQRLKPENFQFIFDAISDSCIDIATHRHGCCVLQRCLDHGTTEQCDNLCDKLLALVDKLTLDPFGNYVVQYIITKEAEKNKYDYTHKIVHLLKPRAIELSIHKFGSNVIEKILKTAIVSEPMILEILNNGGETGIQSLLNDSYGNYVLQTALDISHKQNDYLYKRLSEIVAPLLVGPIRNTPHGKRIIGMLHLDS
Experiment: Mg; RNA-MaP; 20 mM Na-HEPES pH 7.4, 30 mM KOAc, 0.75 mM MgCl2, 0.1% Tween-20, 5% glycerol, 0.1 mg/mL BSA, 2 mM DTT; 25 C; 0.0125-409.6 nM protein
Settings: tags: N-His6-TEV cleaved; C-SNAP kept, Cy3B-labelled; label: tethered on chip by stalled RNA polymerase

Row | Binder | Kd [nM]
1 | B1 | 404
2 | B2 | 392
3 | B3 | 244
4 | B4 | 92.9
5 | B5 | 467
6 | B6 | 126
7 | B7 | 37.4
8 | B8 | 6.62
9 | B9 | > 2300
10 | B10 | 243
11 | B11 | 842
12 | B12 | 567
13 | B13 | 190
14 | B14 | 176
15 | B15 | 276
16 | B16 | 104
17 | B17 | 56.4
18 | B18 | 68.6
19 | B19 | 593
20 | B20 | > 2300
21 | B21 | 50.2
22 | B22 | 115
23 | B23 | 60.5
24 | B24 | 1.46
25 | B25 | 0.68
26 | B26 | 0.57
27 | B27 | > 2300
28 | B28 | > 2300
29 | B29 | 1430
